# Measured values from the supplement of paper PMC7877785.
# ± gives the uncertainty stated by the source.
# Experiment: self-splicing fitness, log relative to wild type (ln ratio); higher = more splicing; Tetrahymena group I intron in knt gene, E. coli kanamycin selection, DiMSum; sequences stand for … in CUCUCU…GGAGGGAAAAGUUAUCAGGCAUGCACCUGGUAGCUAGUCUUUAAACCAAUAGAUUGCAUCGGUUUAAAAGGCAAGACCGUCAAAUUGCGGGAAAGGGGUCAACAGCCGUUCAGUACCAAGUCUCAGGGGAAACUUUGAGAUGGCCUUGCAAAGGGUAUGGUAAUAAGCUGACGGACAUGGUCCUAACCACGCAGCCAAGUCCUAAGUCAACAGAUCUUCUGUUGAUAUGGAUGCAGUUCACAGACUAAAUGUCGGUCGGGGAAGAUGUAUUCUUCUCAUAAGAUAUAGUCGGACCUCUCCUUAAUGGGAGCUAGCGGAUGAAGUGAUGCAACACUGGAGCCGCUGGGAACUAAUUUGUAUGCGAAAGUAUAUUGAUUAGUUUUGGAGUACUCGUGGUCG
# Outline: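 Fitness was computed with DiMSum as the error-weighted combination of replicate fold changes, kanamycin versus none, each normalised to wild type. The library randomised all eight intron nucleotides of the P1ex region, with the intron placed in the knt kanamycin-resistance gene on pET-22b(+) in E. coli BL21(DE3). Six replicate transformations were grown overnight at 37°C or 30°C on LB agar with or without 25 μg/mL kanamycin, plus 100 μg/mL carbenicillin, 50 μM IPTG and 0.2% rhamnose. Pooled colonies were amplicon-sequenced on an Illumina HiSeq 2500.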
Sequence,self-splicing fitness (ln) (30 °C),self-splicing fitness (ln) (37 °C)
UGUAAGCAAUAUUACGUUCU,-0.123 ± 0.085,-0.0225 ± 0.1
UGUCAGCAAUAUUACGACAU,-3.964 ± 0.028,-2.58 ± 0.04
UGUCAGCAAUAUUACGAUAG,-0.276 ± 0.072,0.347 ± 0.088
UGUCAGCAAUAUUACGAUCA,-0.048 ± 0.086,-0.0719 ± 0.11
UGUCAGCAAUAUUACGCCGG,-2.61 ± 0.5,-0.725 ± 0.36
UGUCAGCAAUAUUACGCUAU,-1.83 ± 0.11,-1.3 ± 0.12
UGUCAGCAAUAUUACGGCAA,-0.754 ± 0.075,-0.0955 ± 0.098
UGUCAGCAAUAUUACGGGGG,-2.6 ± 0.14,-1.64 ± 0.15
UGUCAGCAAUAUUACGUACG,-0.208 ± 0.15,0.45 ± 0.15
UGUCAGCAAUAUUACGUCCA,-0.159 ± 0.094,-0.505 ± 0.12
UGUCAGCAAUAUUACGUUUU,-3.83 ± 0.2,-2.23 ± 0.14
UGUGAGCAAUAUUACGAAAU,-3.01 ± 0.18,-3.22 ± 0.35
UGUGAGCAAUAUUACGAAUU,-4.64 ± 0.46,-1.8 ± 0.45
UGUGAGCAAUAUUACGAGUG,-1.4 ± 0.071,-1.16 ± 0.08
UGUGAGCAAUAUUACGAUCA,-0.397 ± 0.23,-0.874 ± 0.32
UGUGAGCAAUAUUACGCAAC,-2.24 ± 0.28,-2.4 ± 0.46
UGUGAGCAAUAUUACGCACA,-2.63 ± 0.29,-2.84 ± 0.34
UGUGAGCAAUAUUACGCCCU,-1.54 ± 0.44,-0.113 ± 0.36
UGUGAGCAAUAUUACGCCGA,-3.5 ± 0.39,-1.77 ± 0.27
UGUGAGCAAUAUUACGCCUA,-0.115 ± 0.23,
UGUGAGCAAUAUUACGCGAG,-2.69 ± 0.22,-1.63 ± 0.23
UGUGAGCAAUAUUACGCGCU,-2.53 ± 0.27,-3.1 ± 0.37
UGUGAGCAAUAUUACGCGUA,-2.35 ± 0.34,-0.703 ± 0.27
UGUGAGCAAUAUUACGGCAC,-3.21 ± 0.23,-2.21 ± 0.23

Sequence,self-splicing fitness (ln) (30 °C),self-splicing fitness (ln) (37 °C)
UGUGAGCAAUAUUACGGGCA,-0.886 ± 0.069,-0.176 ± 0.081
UGUGAGCAAUAUUACGGGGU,-3.98 ± 0.21,-2.75 ± 0.28
UGUGAGCAAUAUUACGGGUC,-4.25 ± 0.33,-2.41 ± 0.19
UGUGAGCAAUAUUACGGUUU,-3.66 ± 0.21,-2.65 ± 0.25
UGUGAGCAAUAUUACGUAAU,,-2.2 ± 0.27
UGUGAGCAAUAUUACGUACC,-1.1 ± 0.23,-0.269 ± 0.28
UGUGAGCAAUAUUACGUAGA,,-0.751 ± 0.44
UGUGAGCAAUAUUACGUAGG,-3.5 ± 0.16,-1.5 ± 0.14
UGUGAGCAAUAUUACGUAUG,-1.22 ± 0.1,-1.26 ± 0.12
UGUGAGCAAUAUUACGUCAA,-3.68 ± 0.35,-2.65 ± 0.31
UGUGAGCAAUAUUACGUCAG,-1.88 ± 0.3,-1.02 ± 0.24
UGUGAGCAAUAUUACGUCCA,-0.973 ± 0.13,-0.0412 ± 0.16
UGUGAGCAAUAUUACGUCUG,-0.95 ± 0.15,-0.000357 ± 0.17
UGUGAGCAAUAUUACGUGCG,-1.36 ± 0.11,-1.06 ± 0.14
UGUGAGCAAUAUUACGUGGG,-3.67 ± 0.25,-2.34 ± 0.15
UGUGAGCAAUAUUACGUUAU,-4.11 ± 0.28,-3.51 ± 0.28
UGUGAGCAAUAUUACGUUGA,-2.82 ± 0.14,-2.11 ± 0.15
UGUUAGCAAUAUUACGAAUG,-1.1 ± 0.097,-0.239 ± 0.13
UGUUAGCAAUAUUACGAUAU,-2.45 ± 0.21,-0.289 ± 0.25
UGUUAGCAAUAUUACGCCAG,-1.36 ± 0.23,-1.76 ± 0.35
UGUUAGCAAUAUUACGCCGG,-0.866 ± 0.13,-0.696 ± 0.19
UGUUAGCAAUAUUACGCCUG,0.435 ± 0.13,0.171 ± 0.17
UGUUAGCAAUAUUACGCUCA,0.179 ± 0.19,-0.292 ± 0.18
UGUUAGCAAUAUUACGCUGG,-3.77 ± 0.24,0.0911 ± 0.15

Sequence,self-splicing fitness (ln) (30 °C),self-splicing fitness (ln) (37 °C)
UGUUAGCAAUAUUACGGAUG,-1.89 ± 0.12,-0.39 ± 0.11
UGUUAGCAAUAUUACGGGAA,-1.84 ± 0.24,-0.696 ± 0.2
UGUUAGCAAUAUUACGGGUA,-0.939 ± 0.15,-1.4 ± 0.16
UGUUAGCAAUAUUACGGUGA,-1.51 ± 0.18,-0.192 ± 0.19
UGUUAGCAAUAUUACGUAAU,-2.96 ± 0.3,-1.02 ± 0.21
UGUUAGCAAUAUUACGUACC,-0.945 ± 0.14,0.399 ± 0.17
UGUUAGCAAUAUUACGUAGC,,-0.793 ± 0.22
UGUUAGCAAUAUUACGUCCA,-0.514 ± 0.071,0.305 ± 0.13
UGUUAGCAAUAUUACGUCCU,-1.31 ± 0.15,-0.516 ± 0.23
UGUUAGCAAUAUUACGUCUU,-2.21 ± 0.15,-1.46 ± 0.13
UGUUAGCAAUAUUACGUGGG,-3.19 ± 0.27,-2.89 ± 0.27
UGUUAGCAAUAUUACGUUUG,-2.14 ± 0.16,-1.26 ± 0.18
UUAAAGCAAUAUUACGAAAC,,-1.33 ± 0.29
UUAAAGCAAUAUUACGAAUG,-0.609 ± 0.096,0.0465 ± 0.14
UUAAAGCAAUAUUACGACCU,-0.0595 ± 0.074,0.121 ± 0.1
UUAAAGCAAUAUUACGACGG,-0.186 ± 0.091,0.75 ± 0.15
UUAAAGCAAUAUUACGACUA,0.243 ± 0.1,0.643 ± 0.14
UUAAAGCAAUAUUACGAGAA,-1.48 ± 0.096,-0.717 ± 0.12
UUAAAGCAAUAUUACGAGCC,-2.3 ± 0.15,-1.42 ± 0.27
UUAAAGCAAUAUUACGAGCG,-0.119 ± 0.086,0.287 ± 0.12
UUAAAGCAAUAUUACGCAAA,-1.1 ± 0.079,-0.177 ± 0.12
UUAAAGCAAUAUUACGCACG,-0.443 ± 0.092,0.47 ± 0.14
UUAAAGCAAUAUUACGCAGU,-3.1 ± 0.28,-1.36 ± 0.18
UUAAAGCAAUAUUACGCAUG,-0.545 ± 0.12,0.368 ± 0.13

Sequence,self-splicing fitness (ln) (30 °C),self-splicing fitness (ln) (37 °C)
UUAAAGCAAUAUUACGCCGC,-2.1 ± 0.39,0.305 ± 0.29
UUAAAGCAAUAUUACGCCGU,-0.966 ± 0.18,-0.394 ± 0.25
UUAAAGCAAUAUUACGCGAC,-2.19 ± 0.15,-1.72 ± 0.17
UUAAAGCAAUAUUACGCUCC,-1.79 ± 0.19,-1.08 ± 0.24
UUAAAGCAAUAUUACGCUGC,-2.18 ± 0.15,-2.71 ± 0.38
UUAAAGCAAUAUUACGGGCU,-2.46 ± 0.11,-0.716 ± 0.1
UUAAAGCAAUAUUACGUAAU,-2.43 ± 0.12,-1.91 ± 0.14
UUAAAGCAAUAUUACGUCUU,-1.23 ± 0.082,-0.988 ± 0.12
UUAAAGCAAUAUUACGUGAU,-3.01 ± 0.15,-1.15 ± 0.14
UUAAAGCAAUAUUACGUUUU,-3.84 ± 0.2,-2.27 ± 0.18
UUACAGCAAUAUUACGAAGU,-3.35 ± 0.29,-2.7 ± 0.36
UUACAGCAAUAUUACGAGAA,-1.83 ± 0.2,-1.59 ± 0.2
UUACAGCAAUAUUACGAUAC,-3.01 ± 0.32,-3.46 ± 0.39
UUACAGCAAUAUUACGAUGA,-0.445 ± 0.06,0.596 ± 0.078
UUACAGCAAUAUUACGAUGG,-1.16 ± 0.062,-0.0316 ± 0.086
UUACAGCAAUAUUACGAUUG,-1.76 ± 0.091,-0.796 ± 0.1
UUACAGCAAUAUUACGAUUU,-1.09 ± 0.059,-0.22 ± 0.084
UUACAGCAAUAUUACGCAAA,-1.83 ± 0.17,-0.688 ± 0.12
UUACAGCAAUAUUACGCGCA,-0.521 ± 0.11,-0.892 ± 0.12
UUACAGCAAUAUUACGCGUG,-1.17 ± 0.081,-0.156 ± 0.093
UUACAGCAAUAUUACGGAAU,-3.68 ± 0.2,-2.7 ± 0.17
UUACAGCAAUAUUACGGCCU,-0.981 ± 0.17,-1.23 ± 0.26
UUACAGCAAUAUUACGGGAG,-1.23 ± 0.071,-0.858 ± 0.077
UUACAGCAAUAUUACGGUUA,-0.071 ± 0.058,0.344 ± 0.07
